Source: patent US20260041793A1, “VIRAL VECTOR” (University of Sheffield, priority 2022, published 2026)

B1: GCAGAGGAUCACCACGCUAUU UUCAAGAGA AAUAGCGUGGUGAUCCUCUGC (nucleic acid)
chain 1: GCAGAGGATCACCACGCTATT
chain 2: AAUAGCGUGGUGAUCCUCUGC
chain 3: GCAGAGGAUCACCACGCUAUUUUCAAGAGAAAUAGCGUGGUGAUCCUCUGC
modifications: expressed or natural sequence; chain 1: target site or template, no part of the molecule
notes: shRNA targeting SRSF1
B2: GGAAGAUCUCGAUCUCGAAGC UUCAAGAGA GCUUCGAGAUCGAGAUCUUCC (nucleic acid)
chain 1: GGAAGATCTCGATCTCGAAGC
chain 2: GCUUCGAGAUCGAGAUCUUCC
chain 3: GGAAGAUCUCGAUCUCGAAGCUUCAAGAGAGCUUCGAGAUCGAGAUCUUCC
modifications: expressed or natural sequence; chain 1: target site or template, no part of the molecule
notes: shRNA targeting SRSF1
B3: GGGCCCAGAAGUCCAAGUUAU UUCAAGAGA AUAACUUGGACUUCUGGGCCC (nucleic acid)
chain 1: GGGCCCAGAAGTCCAAGTTAT
chain 2: AUAACUUGGACUUCUGGGCCC
chain 3: GGGCCCAGAAGUCCAAGUUAUUUCAAGAGAAUAACUUGGACUUCUGGGCCC
modifications: expressed or natural sequence; chain 1: target site or template, no part of the molecule
notes: shRNA targeting SRSF1

test system: SRSF1; assay: Western immunoblotting of SRSF1 in human cells co-transfected with scAAV plasmids and C9ORF72-repeat reporter; assay type: cell-based; details: co-transfected with sense or antisense C9ORF72-repeat reporter, FIG. 4

Molecule | depletion of SRSF1
B1 | efficient depletion of SRSF1
B2 | efficient depletion of SRSF1
B3 | efficient depletion of SRSF1
